# Test results as given in PMC3173486.
# B1: RpSP-D multimers (natural protein)
# chain: AEMKTYSQRAVANACALVMCSPMENGLPGRDGRDGREGPRGEKGDPGLPGAVGRAGMPGLAGPVGPKGDNGSTGEPGAKGDIGPCGPPGPPGIPGPAGKEGPSGQQGNIGPPGTPGPKGETGPKGEVGALGMQGSTGARGPAGLKGERGAPGERGAPGSAGAAGPAGATGPQGPSGARGPPGLKGDRGPPGERGAKGESGLPGITALRQQVETLQGQVQRLQKAFSQYKKVELFPNGRGVGEKIFKTGGFEKTFQDAQQVCTQAGGQMASPRSETENEALSQLVTAQNKAAFLSMTDIKTEGNFTYPTGEPLVYANWAPGEPNNNGGSSGAENCVEIFPNGKWNDKACGELRLVICEF
# B2: RpSP-D trimers (natural protein)
# chain: B1 chain
# Biological target: HA of all the influenza A/H3N2 viruses tested with RpSP-D multimers and trimers
binder,measurement,value
B1,HI assay: minimal inhibitory concentration of RpSP-D multimers,8.7 ng/100 µl
B2,HI assay: minimal inhibitory concentration of RpSP-D trimers,124 ng/100 µl
